Source: patent EP1132405A1 (Takeda Chemical Industries, Ltd., dated 2001)
Ends that are not written are not given here.

Molecular target: rat cerebellum-derived G protein-coupled receptor protein rOT7T022L (rat, UniProt Q9EP86 1-432)
Test: cell-based or functional assay

rat cerebellum-derived G protein-coupled receptor protein rOT7T022L, sequence (Q9EP86 whole entry, form in doubt): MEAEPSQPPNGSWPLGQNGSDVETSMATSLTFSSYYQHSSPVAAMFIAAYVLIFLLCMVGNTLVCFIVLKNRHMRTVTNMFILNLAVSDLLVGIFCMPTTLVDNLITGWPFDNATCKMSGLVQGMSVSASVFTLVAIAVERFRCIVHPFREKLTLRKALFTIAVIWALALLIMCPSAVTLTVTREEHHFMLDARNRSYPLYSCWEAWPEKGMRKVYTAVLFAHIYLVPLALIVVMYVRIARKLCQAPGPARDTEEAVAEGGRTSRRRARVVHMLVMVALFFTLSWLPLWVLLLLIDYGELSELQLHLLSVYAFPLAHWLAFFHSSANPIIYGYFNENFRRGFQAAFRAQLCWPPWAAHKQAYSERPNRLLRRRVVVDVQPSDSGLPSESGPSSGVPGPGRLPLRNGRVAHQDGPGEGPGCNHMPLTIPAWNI

MPHSFANLPLRF-NH2 [peptide MPHSFANLPLRFamide (Met-Pro-His-Ser-Phe-Ala-Asn-Leu-Pro-Leu-Arg-Phe-NH2)]
IC50 of cAMP production suppression (forskolin-stimulated, cAMP EIA): 0.5 nM
